From US20140328858, “LIN28-MEDIATED CONTROL OF LET-7 BIOGENESIS” (Children's Medical Center Corporation, published 2014)
Read-outs that look alike come from different tables or passages of the source.

How the values were obtained:
[1] = tested on: immunopurified Flag-Lin28
Lin28A = target: T1, Lin28A (Homo sapiens, UniProt Q9H9Z2 Q9H9Z2:2-209); test: EMSA; 50 mM Tris pH 7.5, 100 mM NaCl, 10 mM bME, RT, 0.5 nM RNA; Kd fitted (Hill) but value not in text; settings: tags: 6xHis N-terminal, E. coli (pET21); label: 5'-end label (EMSA); hairpin
T1 sequence: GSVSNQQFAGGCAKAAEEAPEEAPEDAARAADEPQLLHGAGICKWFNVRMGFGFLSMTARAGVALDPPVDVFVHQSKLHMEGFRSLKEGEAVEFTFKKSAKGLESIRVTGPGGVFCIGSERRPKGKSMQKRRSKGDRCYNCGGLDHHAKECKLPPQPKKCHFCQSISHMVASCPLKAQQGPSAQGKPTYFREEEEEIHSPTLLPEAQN
Description: (§1) EMSA was performed with pre-let-7g to analyze the relative binding affinities of the two recombinant proteins. Lin28A and Lin28B have apparent Kds of approximately 0.6 nM and 0.5 nM, respectively (FIG. 7B). Both these estimated Kds are much lower than a previously reported for recombinant mouse Lin28A. This difference is likely due to the omission here of nonspecific yeast tRNA competitor used previously in the binding buffer. Piskounova et al., 2008. […] Collectively, these assays reveal that both Lin28 proteins can directly bind to let-7 precursors with high-affinity in vitro.
(§2) Transformed BL21-CodonPlus® Competent bacteria (Stratagene) were grown to an OD600 nm of 0.4-0.6. Expression was induced 100 μM IPTG for 2-3 hours. Cell pellets were resuspended in cold lysis buffer [20 mM imidazole pH 8.0 in PBS, 0.1% Phenylmethyl sulfonyl fluoride (PMSF)] and sonicated. Cleared lysates were incubated with Ni-NTA beads and after 90 min incubation at 4° C. the beads were washed with 80-column-vol. wash buffer [10 mM Tris (pH 7.8), 50 mM imidazole pH 8.0, 500 mM NaCl, 0.1% PMSF). […] Band intensities of scanned gels were quantified using ImageJ software and used to calculate percentage of probe bound. […]

Lin28B = target: T2, Lin28B (Homo sapiens, UniProt Q6ZN17 Q6ZN17:2-250); test: as above; settings: tags: 6xHis N-terminal, E. coli (pET21); label: 5'-end label (EMSA); hairpin
T2 sequence: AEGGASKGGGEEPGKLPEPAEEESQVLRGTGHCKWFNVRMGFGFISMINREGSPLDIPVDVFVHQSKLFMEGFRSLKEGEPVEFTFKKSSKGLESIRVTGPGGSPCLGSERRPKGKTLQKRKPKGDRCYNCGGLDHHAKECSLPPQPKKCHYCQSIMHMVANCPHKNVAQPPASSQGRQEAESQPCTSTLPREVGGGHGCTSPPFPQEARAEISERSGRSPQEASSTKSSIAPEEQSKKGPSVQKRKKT
Description: as §1, §2

[2] = target: immunopurified Flag-Lin28; remark: listed apart in the source

Which “in vitro uridylation of synthetic pre-let-7 (incorporation of radiolabeled UTP)” value [1] does the source give for “mZcchc11 ΔC2H2 (N-terminal truncation lacking the C2H2 zinc finger)” here?
Its value is “Loss of the N-terminal C2H2 domain still allowed for basal activity, but this mutant could no longer support Lin28-enhanced uridylation against pre-let-7”.

B1: pre-let-7g (ssRNA)
RNA: GAGGUAGUAGUUUGUACAGUUUGAGGGUCUAUGAUACCACCCGGUACAGGAGAUAACUGUACAGGCCACUGCCUUGC
Which results are given for B1?
binding result (Lin28A): binds; binding result (Lin28B): binds

B2: mZcchc11 C326/329A (full-length) (protein)
chain: MEEPKTSKNENHEPKKNIICEESKAVKIISNQTLKPRNDKSEIGTSSLNRNSSKKTKQNDICIEKTEAKSCKVNAASVPGPKDLGLVHRDQSHCKMKKLPNSPMKAQKGSSQTKLEKTPSLQTKAEKVPKSPNLPVKAEKAPCTTAEATTEKALNSQRKEENTPTSQMKLQKTPRSPLEPENVPSLLLKENVKQTESQQTGKKLTSSFVSMDKRKSEALQGEKSALENSSLSQKQQTQTDNIADSDDSASGIEDTADDLSKMKSEESNKENSSEMDYLENATVIDESALTPEQRLGLKQAEERLERDHIFRLEKRSPEYTNCRYLAKLALIHIENIQGAHKHIKEKRHKKNILEKQEESELRSLPSPSSAHLAALSVAVVELAKEQGITDDDLRIRQDIVEEMSKVIMTFLPECSLRLYGSSLTKFALKSSDVNIDIKFPPKMNHPDLLIQVLGILKKSALYIDVESDFHAKVPVVVCKDRKSALLCRVSAGNDMACLTTDLLAALGKVEPVFTPLVLAFRYWAKLCYIDSQTDGGIPSYCFALMVMFFLQQRKPPLLPCLLGSWIEGFDPKRMDDFQLKGIVEEKFVKWEYNSSSATEKNLIADENKAKADEPKDDTKKTETDNQSNAAKAKHGKSPLTLEAPNQVPLGQLWLELLKFYTLDFALEEYVICVRIQDILTRENKNWPKRRIAIEDPFSVKRNVARSLNSQLVYEYVVERFRAAYRYFACPQKKGGNKSTMDPKKKEKGKLSSKKPVKSDCSATNCCILGESAEKIHMERGQPAKHDETEFTSQRCIVDNDSLLVNELGLANHGQDSSSLSTASGGSDLKQKSAEKQGDLTPSETSLKKELSQCICIGTPDGAESAGTDCRSNLEMDSSHQIVCNNVSATSCNCKATEVTSDLVDEDNLPSQELYYVFDKFILTSGKPPTIVCSICKKDGHSKNDCPEDFRKIDLKPLPPMTNRFREILDLVCKRCFDELSPPCSEQHNREQILIGLEKFIQKEYDEKARLCLFGSSKNGFGFRDSDLDICMTLEGHENAEKLNCKEIIENLAKILKRHPGLRNILPITTAKVPIVKFEHRRSGLEGDISLYNTLAQHNTRMLATYAAIDPRVQYLGYTMKVFAKRCDIGDASRGSLSSYAYILMVLYFLQQRKPPVIPVLQEIFDGKQIPQRMVDGWNAFFFDKTEELKKRLPSLGKNTESLGELWLGLLRFYTEEFDFKEYVISIRQKKLLTTFEKQWTSKCIAIEDPFDLNHNLGAGVSRKMTNFIMKAFINGRKLFGTPFYPLIGREAEYFFDSRVLTDGELAPNDRCCRVCGKIGHYMKDCPKRKRLKKKDSEEEKEGNEEEKDSRDLLDSRDLRCFICGDAGHVRRECPEVKMARQRNSSVAAAQLVRNLVNAQQVAGSAQQQSDQSIRTRQSSECSDSPSYSPQPQPFPQNSPQPSALPPPPSQPGSQPKLGPPQQGGQPPHQVQMPLYNFPQSPPAHYSPMHSMGLLPMHPLQIPAPSWPIHGPMLHSAPGSTPSNIGLNDPSIIFAQPAARPMAIPSPSHDGHWPRTVAPNSLVNNGAVGNSEPRFRGLNPPIPWEHAPRHFPLVPASWPYGLHQNFMHQGNPRFQPKPFYAQADRCATRRCRERCPHPPRGNVSE
How did the “in vitro uridylation of synthetic pre-let-7 (incorporation of radiolabeled UTP)” value [2] turn out when B2 was run?
Its value is “this mutant exhibited only basal uridylation activity, as the addition of Lin28 had no impact on its catalysis in vitro”.
